In publication PMC12648486, “A LisH-domain protein interaction map reveals a Lis1-ARIH2-dynein regulatory axis” (iScience, 2025):

Target: T1, MBP-ARIH2 (UniProt O95376 1-493)
T1 construct: RBR-type E3 ubiquitin ligase ARIH2, cloned in this study into an MBP-tagged Gateway vector; source: E. coli BL21 (DE3), purified (Dextran-Sepharose, maltose elution)
T1 sequence (looked up): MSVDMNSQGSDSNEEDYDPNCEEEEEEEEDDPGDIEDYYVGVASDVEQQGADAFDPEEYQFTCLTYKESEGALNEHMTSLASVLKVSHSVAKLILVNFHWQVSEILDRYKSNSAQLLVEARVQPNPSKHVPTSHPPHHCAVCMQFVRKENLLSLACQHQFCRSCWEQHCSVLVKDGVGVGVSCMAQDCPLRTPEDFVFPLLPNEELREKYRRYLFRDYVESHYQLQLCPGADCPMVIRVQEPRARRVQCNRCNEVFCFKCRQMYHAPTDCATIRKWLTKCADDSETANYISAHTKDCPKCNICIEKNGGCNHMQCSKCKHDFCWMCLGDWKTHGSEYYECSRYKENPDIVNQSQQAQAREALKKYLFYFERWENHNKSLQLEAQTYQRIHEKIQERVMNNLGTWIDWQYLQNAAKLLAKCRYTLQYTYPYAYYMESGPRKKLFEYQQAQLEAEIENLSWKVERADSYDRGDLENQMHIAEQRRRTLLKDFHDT
Experiment: pull-down; bacterially purified recombinant GST-tagged protein incubated with purified MBP-ARIH2; eluates immunoblotted with MBP antibody
Conditions: both partners purified

B1: GST-Lis1 (natural protein, human, UniProt P43034 1-410, looked up)
chain: MVLSQRQRDELNRAIADYLRSNGYEEAYSVFKKEAELDVNEELDKKYAGLLEKKWTSVIRLQKKVMELESKLNEAKEEFTSGGPLGQKRDPKEWIPRPPEKYALSGHRSPVTRVIFHPVFSVMVSASEDATIKVWDYETGDFERTLKGHTDSVQDISFDHSGKLLASCSADMTIKLWDFQGFECIRTMHGHDHNVSSVAIMPNGDHIVSASRDKTIKMWEVQTGYCVKTFTGHREWVRMVRPNQDGTLIASCSNDQTVRVWVVATKECKAELREHEHVVECISWAPESSYSSISEATGSETKKSGKPGPFLLSGSRDKTIKMWDVSTGMCLMTLVGHDNWVRGVLFHSGGKFILSCADDKTLRVWDYKNKRCMKTLNAHEHFVTSLDFHKTAPYVVTGSVDQTVKVWECR
notes: Lis1 (PAFAH1B1), human, in a GST-tagged Gateway vector; source: E. coli BL21 (DE3), purified (Glutathione Sepharose)
B1: binds.
